This note sets out measurements from the DeepSol protein solubility set.

This data set in a line: soluble on expression in E. coli; label from the status in PepcDB or PDB records.
Regarding “MAMHPRKDWYELTRATNWTPSYVTEEQLFPERMSGHMGIPLEKWESYDEPYKTSYPEYVSIQREKDAGAYSVKAALERAKIYENSDPGWISTLKSHYGAIAVGEYAAVTGEGRMARFSKAPGNRNMATFGMMDELRHGQLQLFFPHEYCKKDRQFDWAWRAYHSNEWAAIAAKHFFDDIITGRDAISVAIMLTFSFETGFTNMQFLGLAADAAEAGDYTFANLISSIQTDESRHAQQGGPALQLLIENGKREEAQKKVDMAIWRAWRLFAVLTGPVMDYYTPLEDRSQSFKEFMYEWIIGQFERSLIDLGLDKPWYWDLFLKDIDELHHSYHMGVWYWRTTAWWNPAAGVTPEERDWLEEKYPGWNKRWGRCWDVITENVLNDRMDLVSPETLPSVCNMSQIPLVGVPGDDWNIEVFSLEHNGRLYHFGSEVDRWVFQQDPVQYQNHMNIVDRFLAGQIQPMTLEGALKYMGFQSIEEMGKDAHDFAWADKCKPAMKKSA”, the “soluble on expression in E. coli” value is listed as “soluble”.
To “MAMSQQDLPTLFYSGKSNSAVPIISESELQTITAEPWLEISKKGLQLEGLNFDRQGQLFLLDVFEGNIFKINPETKEIKRPFVSHKANPAAIKIHKDGRLFVCYLGDFKSTGGIFAATENGDNLQDIIEDLSTAYCIDDMVFDSKGGFYFTDFRGYSTNPLGGVYYVSPDFRTVTPIIQNISVANGIALSTDEKVLWVTETTANRLHRIALEDDGVTIQPFGATIPYYFTGHEGPDSCCIDSDDNLYVAMYGQGRVLVFNKRGYPIGQILIPGRDEGHMLRSTHPQFIPGTNQLIICSNDIEMGGGSMLYTVNGFAKGHQSFQFQLEHHHHHH” belongs “soluble”; to “MAMSRQCTHYGRWPQHGFTSLKKLTPQSVTSRIQPGTDVIVCAEMDEHWGYFCAKKRQRWLVDTYDKIRRTDVDHVFGERTLATLERLLSLLSAFEVAVWMTDGWPLYESRLKGKLHVISKRYTQRIERHNLNLRQHLARLVRKSLSFSKSVELHSGIILEHHHHHH”, “not soluble”; to “MAMTKLDATLAMLKELTDARGIAGNEREPREVMKKYIEPFADELSTDNLGSLVAKKVGEENGPKIMVAGHLDEVGFMITQIDDKGFLRFQTVGGWWSQVMLAQRVTIVTRKGDVTGVIGSKPPHILPPEARKKPVEIKDMFIDIGASSQEEAMEWGVRPGDQVVPYFEFQVMKNEKMLLAKAWDNRIGCAIAIDVLKQLKDEKHPNVVYGVGTVQEEVGLRGAKTSANYIKPDIAFAVDVGIAGDTPGVTSKEAQSKMGDGPQIILYDASVIGHTGLRDFVVDVADELQIPYQYDSVAGGGTDAGAIHIAVNGIPSMAITIATRYIHSHAAMLHRDDYENAVKLIVEVIKRLDKEAVHNITFN”, “not soluble”.
The entry for “MANDGGAKLSKNLLRMKFMQRGLDAEVKKQLDEEEKRIISDEHWFLDLPELKAKENHIIEERSFVPCEDLVYGRMSFKGFNPDVEKLMLLMNAPREEEDEEEEDESMNKMETDITDEEMAKRYQSLVESMRKKFAKKRDRSAVSNKEDVNCNVTDDIRPKRAFMKPQD” is “soluble”; for “MANIVITTHWTDGDVLPFIKIGSELRKRGHRVTLITHCYYKNMAKSQGLDFEAWDSPEQHRQMLEDMKEELDPLRNPCALERYKKKYESIEVRLREFKKVIAHCNTTDTVLVAKNRSSVAAYLAAEKLNIPLVCVFMAPSEMLSMVSYEMMLGKLLANELNLLRKELNLAPVKSWLAWQSSPKRQIALWPDWFAEPIEEWPAEVINVGFPLSYNERFDNLPPDLMEDLLGDEPPVVITGGTSKTIRPEFYPLCVETCRLSGRKGILVTRYEELLPKELPDKVKWFRELPLNKIFPYTSAVIHHGGMGTLSGAIAAGVPQLVLPYYLDRPYNALCLKKLGIAEYLPPIKWKPEIMVDALQKITASSFRERCKLFSKKVSLQNTMNEICCLIEETVNNEEFLLKDISLLQTT” it is “not soluble”; for “MANLFRNLFGHKKSHSKGDEDHENMDRDTSRRSIRAAPSSSSRSMARGARFQDDSMLPPTAAYHTQNASARVRRGPKSCPGEYIEEEAPSSSRSFNVDSFRREPRDQRRRSSNMVQSTSKMTSSSSSRAAPRYQQWETSEYGSENTSPIGYHRHYQHRRHHPEEEEDEEEDEEEVYKKSMRYQDLKKKIRAHYEERLFNYERTQRNDHRQIKELEKEKDDLVKMLLQSNAKLDKEKKKTEYFKRKWQEAEHKIPFGNPIMPQFGFPPATPQFPQMFQFQPNSGGSAQRYSFMGAPMHPISSSNTPTTSGMDTTHGGAGESLVPASDVSYLAPLVPAPPTLPLLELNTSQGPSTSGISQQNPQQSSSSFFHDDDEDQDETKNFRDEEIESPRCHGSTSTLKNDEEAAELSDFLSKSNLTTLEEGKDSGFSTTPDDAKEPEKVAAN” it is “not soluble”.
To “MANNLMSGIIAQQPPIEAESDVHVVKSRLEWGEPAFTILDVRDRSIYNEGHIMGAMSMPIDELTERAAISLDTSRDIYIYGTNDGQTTQAAQILRSAGFKNVSQLKGGFGAWKAIGGATEGIIESRTPAAADDYNVVSRIQNHIETQQK” belongs “not soluble”.
For the sequence “MANPRGFCAGVDRAISIVENALAIYGAPIYVRHEVVHNRYVVDSLRERGAIFIEQISEVPDGAILIFSAHGVSQAVRNEAKSRDLTVFDATCPLVTKVHMEVARASRRGEESILIGHAGHPEVEGTMGQYSNPEGGMYLVESPDDVWKLTVKNEEKLSFMTQTTLSVDDTSDVIDALRKRFPKIVGPRKDDICYATTNRQEAVRALAEQAEVVLVVGSKNSSNSNRLAELAQRMGKHAFLIDDAKDIQEEWVKEVKCVGVTAGASAPDILVQNVVARLQQLGGGEAIPLEGREENIVFEVPKELRVDIREVD”, the “soluble on expression in E. coli” value is listed as “not soluble”.
The entry for “MANQHFAKEAPETYWKTSTDLPSFPALQEDTECDVTIIGGGITGITTAYELTKRGFRVVLIEANQVLNGTTAHTTAKVTAQHDMIYDEFIRHFGLNHARLYYEANQNAIDYIKGIVDEHQIDCEWIEQDAYLYTANENAVQKIHTEHEAYTKLGIERDLIKDLPIPLGSKLALVMKNQAQFHPLQYLKALLEQIVQKGGRIYEETVALDIKKGERPEVVTKSRHAIKSRFIICCSHFPFYDGGGLYAARMYSDRSYVLAIKPKIEYPEGMYLSIDQPSVALRYTVVNGEKLILFSGVSHKTGQGKAMSTHYETLRQLAESTIGIESIPYYWSTQDLVTIDKIPFIGPMSENEDNILVATGFKKWGMTSSAVAATLLSDLVEKKENPYESIFTPSRFHLNPGLQKVISYNADVAKHLIKGKLEKPDVQFEDISPGEGKAVTINGRRAGAFRDETGCLHLVDTTCTHLGCEVEWNDSEHTWDCPCHGSRFKPSGEVVEGPAIKPLKQIDLDLEHHHHHH” is “soluble”.
To “MANTLIVGAGWLGTPLAQALLVEGHDVVITRRSQARLDERPSTIANAALLDLNDENAAQKLDEIIQSNHIERIVGAFPPGFRRGSGREYAQQWSTLVKAAKQHAIEKLVMISSTTVYPNLPTDMKEESASLALVQTHPHFSDNAKIMLEAEQSVIDSGINYAILRCSGLFGPDRHPARFAMRLKQVSRKAPANMLHQSDAVAVAQFALDHLSNQIINVTTPHTVSKAEFYQAAITKSGAEISLPPVTEDADKRILADKLVSLGYQFRFNSTLDAL” belongs “not soluble”; to “MANWQCVKQCGACCNLDPAERPEIEDYLTPDELEIYFSMVGEGGWCVNFDHTTRECRIYSTRPRFCRVEPDIFQDMYGIESEELNDFAIECCRQQIEGVYGDRSLEMLRFDKAVGILEHHHHHH”, “soluble”; to “MAPDLSGTWYVLEGDPGEHLVVEALGERLSGIWTSRELAEAFLAHHPHLGMRVSALESRALKEAYLRALGMLQVEAVMVDYRPGTHRAQVARVKDLLEEVRRA”, “soluble”.
On to “MAPTLLELTASIVSSHAAVSELSTEELVQEIQKVHATLQQLEGGAAAPEVAAEEAKAPAMTLKKAFQADQVCCMICGKGGMKTLTRHLAQVHQMKPGEYRKQFNIPSSQPLTAKKFSEARKQMAKDRGLAENLAKARAVRAAKIQEKKAAAEKPAKTKATRAKKATA”, for which the “soluble on expression in E. coli” value is listed as “not soluble”.
To “MAPWKIEEVKTLKGLIKSKPVVAIVDMMDVPAPQLQEIRDKIRDKVKLRMSRNTLIIRALKEAAEELNNPKLAELANYVERGAAILVTDMNPFKLYKLLEENKSPAPVRGGQIAPCDIKVEKGSTGMPPGPFLGELKSVGIPAAIEKGKIAIKEDKVVVKKGEVVSPKLAAVLDRLGIKPIKVGLNILAVYEDGIIYTPDVLKVDEEKLLADI” belongs “soluble”.
